Broadly, the Kd is the free concentration of one partner at which half of the binding sites on the other are occupied at equilibrium, for simple one-to-one binding.

Assay [1] deals with murine anti-fHbp monoclonal antibody JAR5 (IgG2b) (mouse). Kind of assay: SPR. A general note: SPR reads the build-up and loss of mass on a sensor chip optically.
Assay [2] addresses T1, factor H binding protein (fHbp) variant 1.1, wild type (Neisseria meningitidis serogroup B …, UniProt Q9JXV4).
T1 construct: source: E. coli BL21(DE3), purified
Kind of assay: SPR; fHbp covalently immobilised by amine coupling on a CM5 chip (~500 RU); mAbs at 100 nM in HBS-EP injected one after the other (first mAb to saturation, then the second), both orders; 25 °C. The conditions noted are these: both partners purified.

Sequence of murine anti-fHbp monoclonal antibody JAR5 (IgG2b) (mouse) (heavy, as listed by the source, chain 1 of 2, other chains not shown): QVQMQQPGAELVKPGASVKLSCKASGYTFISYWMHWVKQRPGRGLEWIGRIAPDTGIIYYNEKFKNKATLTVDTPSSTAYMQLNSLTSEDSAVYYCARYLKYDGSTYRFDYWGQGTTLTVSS

“fHbp variant 1.1 Asp85Ala mutant (natural protein)” came in with a Kd in assay [1] of 20 nM.

For the molecule “fHbp variant 1.1 Gln87Ala mutant (natural protein)”, in assay [1], the Kd is 1.7 nM.

As for “fHbp variant 1.1 Gln115Ala mutant (natural protein)”, the Kd in assay [1] came out at 23 nM.

In turn, “fHbp variant 1.1 Gly121Ala mutant (natural protein)” registered a Kd in assay [1] of 20 nM.

“fHbp variant 1.1 Lys122Ala mutant (natural protein)” returned a dissociation constant Kd in assay [1] of 17 nM.

With “fHbp variant 1.1 Lys122Ser mutant (natural protein)”, the equilibrium dissociation constant (Kd) in assay [1] worked out at 13 nM.

B1: murine anti-fHbp monoclonal antibody 12C1 (IgG2b) (antibody, V domains shown)
VH: QVQLQESGPELVKPGASVKISCKASGYSFSDYNMSWVKQSNGKSLEWIGIIDPKYGTINYNQKFKGKATLTVDQASSTAYMQLNSLTSEDSAVYYCVRDYYGSSYFDYWGQGTTLTVSS
VL: DIVLTQSPSSIYASLGERVTLTCKASQDIHNYLNWFQQKPGKSPKTLIYRANRLVDGVPSRFSGGGSGQDYSLTISSLEFEDIGIYYCLQYDEFPPTFGGGTRLEIK
notes: also called mAb 12C1
Consider B1, for which the binding result in assay [2] is on record as “binds”.

The values are drawn from article PMC6398935 (The Biochemical journal, 2016).
